Data taken from publication doi:10.1101/2025.03.09.642192.

Key:
[1] = molecular target: HAdV-C5 hexon protein (HAdV-C5) (UniProt P04133); test: SPR
[2] = molecular target: purified hexon protein from ChAdOx1 (chimpanzee adenovirus Y25 (ChAdOx1)); test: SPR

Sequence of HAdV-C5 hexon protein (HAdV-C5) (P04133 whole entry): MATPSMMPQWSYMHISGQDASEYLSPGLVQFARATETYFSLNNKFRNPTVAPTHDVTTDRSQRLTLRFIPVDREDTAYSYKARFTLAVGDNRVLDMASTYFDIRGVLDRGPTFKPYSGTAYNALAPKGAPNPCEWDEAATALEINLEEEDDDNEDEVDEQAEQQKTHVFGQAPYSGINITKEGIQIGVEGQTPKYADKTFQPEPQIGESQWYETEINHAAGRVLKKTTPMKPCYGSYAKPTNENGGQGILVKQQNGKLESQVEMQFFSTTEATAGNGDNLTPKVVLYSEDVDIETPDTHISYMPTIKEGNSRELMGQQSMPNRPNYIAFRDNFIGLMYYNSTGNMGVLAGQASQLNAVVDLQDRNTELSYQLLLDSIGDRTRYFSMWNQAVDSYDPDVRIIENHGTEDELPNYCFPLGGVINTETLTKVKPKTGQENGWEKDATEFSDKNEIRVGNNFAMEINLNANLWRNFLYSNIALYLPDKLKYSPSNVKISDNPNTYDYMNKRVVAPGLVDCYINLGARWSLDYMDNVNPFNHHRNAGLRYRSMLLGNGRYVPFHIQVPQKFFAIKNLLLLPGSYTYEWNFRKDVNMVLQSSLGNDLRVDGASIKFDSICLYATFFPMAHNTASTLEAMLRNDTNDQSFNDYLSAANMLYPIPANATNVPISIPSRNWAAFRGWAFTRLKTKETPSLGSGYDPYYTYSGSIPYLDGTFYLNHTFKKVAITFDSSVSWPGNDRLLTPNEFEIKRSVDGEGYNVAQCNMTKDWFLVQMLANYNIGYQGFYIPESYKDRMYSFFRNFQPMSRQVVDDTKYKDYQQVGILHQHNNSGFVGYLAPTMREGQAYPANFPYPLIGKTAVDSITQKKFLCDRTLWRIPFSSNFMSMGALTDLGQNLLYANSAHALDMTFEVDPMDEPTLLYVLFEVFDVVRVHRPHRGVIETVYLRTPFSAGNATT

platelet factor 4 (PF4) (natural protein)
Kd [1]: 767 nM
Kd [2]: 296 nM
